B1: 01A05 (antibody, V domains shown)
VH: QVQLVQSGAEVKKPGASVKVSCKASGYTFTSYGISWVRQAPGQGLEWMGWISADNGNTNYAQKLQGRVTMTTDTSTSTAYMELRSLRSDDTAVYYCARVPMFVVPNCSGGGCYRRAWEAGLDVWGQGTTVTVSS
VL: DIQMTQSPSSLSASVGDRVTITCRASQSISNYLNWYQQRPGRAPKLLIYTTSNLQSGVPSRFSGSGSGTDFTLTISSLQPEDFATYFCQQSFTGTFGGGTKVEIK
B2: rmAb23 (antibody, V domains shown)
VH: EVQLVESGGGLIQPGGSLRLSCAASGFTVSSNYMSWVRQAPGKGLEWVAVIYSGGSTDYADSVKGRFTISRDNSKNTLHLQMNSLRAEDTAVYYCARDLVVYGMDVWGQGTTVTVSS
VL: DIQLTQSPSFLSASVGDRVTITCRASQGISSYLAWYQQKPGKAPKLLIYAASTLQSGVPSRFSGSGSGTEFTLTISSLQPEDFATYYCQQLNSYPLTFGPGTKVDIK
B3: XG014 IgG (antibody, V domains shown)
VH: EVQLVQSGAEVKKPGESLKISCKGSGYSFSNYWIGWVRHMPGKGLEWMGIIYPGDSDTRYSPSFQGQVTISVDTSISTAYLQWSSLKASDTAMYYCTRHQYGYNYGYFYYYIDVWGKGTTVTVSS
VL: QSVLTQPPSVSAAPGQKVTISCSGSSSNIGNNPVSWYRQVPGTAPKLLIYDNNKRPSGIPDRFSGSKSGASATLGITGLQTGDEADYYCGTWHTSLSSGVFGGGTKLTVL
notes: also called parental IgG; source: recombinant

How the values were obtained:
[1] = molecular target: SARS-CoV-2 Delta (B.1.617.2) receptor-binding domain (SARS-CoV-2 Delta (B.1.617.2), strain)
[2] = molecular target: SARS-CoV-2 Alpha (B.1.1.7) receptor-binding domain (SARS-CoV-2 Alpha (B.1.1.7), strain)
[3] = molecular target: T1, SARS-CoV-2 G614 (wild-type) receptor-binding domain (SARS-CoV-2, UniProt P0DTC2)
[4] = molecular target: T1, SARS-CoV-2 G614 (wild-type) …; test: ELISA; conditions: both partners purified

| Binder | binding result [1] | binding result [2] | Kd [3] [nM] | binding result [4] |
| --- | --- | --- | --- | --- |
| B1 | binds | binds | 2.5 | – |
| B2 | binds | binds | 6.5 | – |
| B3 | – | – | – | binds |

Reference: PMC10801922 (Proceedings of the National Academy of Sciences of the …, 2024)
